Measurements: patent publication US20190269666A1 (Eli Lilly, published 2019)

Legend:
[1] = target: T1, biotinylated PD-L1-Fc fusion protein (Homo sapiens (Human), UniProt Q9NZQ7 19-238, limits assumed, biotinylated (sites not given)); experiment: blocking ELISA: antibody premixed with biotinylated PD-L1-Fc (100 ng/well), plate coated with PD-1-Fc (1 ug/ml)
T1 construct: not shown: Fc part

[2] = target: T1, biotinylated PD-L1-Fc fusion protein; experiment: blocking ELISA: antibody premixed with biotinylated PD-L1-Fc, plate coated with B7-1-Fc (1 ug/ml, R&D Systems)
[3] = target: T2, human PD-L1-Fc fusion protein (human, UniProt Q9NZQ7 19-239); experiment: ELISA, plate coated with human PD-L1-Fc (R&D Systems), anti-human IgG F(ab')2-HRP detection
T2 construct: treated as one molecule; also called soluble human PD-L1-Fc fusion protein; human PD-L1-Fc (R&D Systems); not shown: Fc part
Procedure: Wells are blocked for 2 hours with blocking buffer (PBS containing 5% nonfat dry milk). Wells are washed three times with PBS containing 0.1% TWEEN®-20. […] After washing, the plate is incubated with 100 μL of goat anti-human IgG F(ab′)2-HRP conjugate (Jackson Immuno Research) at room temperature for 1 hour. The plates are washed and then incubated with 100 μL of 3,3′, 5,5′-tetra-methylbenzidine. The absorbance at 450 nm is read on a microplate reader. The half maximal effective concentration (EC₅₀) is calculated using GraphPad Prism 6 software.

[4] = target: T2, human PD-L1-Fc fusion protein; experiment: SPR (Biacore T200), antibody immobilized, PD-L1-Fc as analyte, 37 C, 1:1 model
Procedure: (§1) Immobilization of antibodies of the present invention as ligand on to sensor chip surface is performed at 25° C. […] The analysis is performed at 37° C. The contact time for each sample is 180 seconds at 30 μL/minute. The dissociation time was 240-1500 seconds. The immobilized surface is regenerated for 18 seconds with 0.95 M NaCl/25 mM NaOH at 30 μL/minute, and then stabilized for 30 seconds. Binding kinetics are analyzed using the Biacore T200 Evaluation software (Version 3.0). Data are referenced to a blank flow cell, and the data are fit to a 1:1 binding model.

[5] = target: T3, cynomolgus monkey PD-L1-Fc fusion protein (cynomolgus monkey); experiment: as above
T3 construct: Soluble analyte in SPR; also called Cyno PD-L1
Procedure: as §1

[6] = target: T4, cell surface PD-L1 on MDA-MB231 cells (human, UniProt Q9NZQ7 19-290); experiment: flow cytometry on MDA-MB231 cells, biotinylated antibody, streptavidin-PE detection
T4 construct: Endogenous PD-L1 of the human cell line; also called cell surface expressed human PD-L1; MDA-MB 231 cells (PD-L1-positive human breast adenocarcinoma cell line)
Procedure: Plate are centrifuged at 1200 rpm for 5 minutes and supernatant removed. 100 μL of antibody-biotin (serially diluted by 1:4 starting from 10 μg/ml) is added. A total of 6 serial dilutions are evaluated. After incubation at 4° C. for 30 minutes, cells are washed twice with DPBS. 100 μL of detection buffer containing 5 μL streptavidin-PE is added. After incubation at 4° C. for 30 more minutes, plate is centrifuged and washed twice with DPBS. Cells are re-suspended in 200 μL DPBS for FACS analysis.

T2 sequence (Q9NZQ7 19-239 limits assumed): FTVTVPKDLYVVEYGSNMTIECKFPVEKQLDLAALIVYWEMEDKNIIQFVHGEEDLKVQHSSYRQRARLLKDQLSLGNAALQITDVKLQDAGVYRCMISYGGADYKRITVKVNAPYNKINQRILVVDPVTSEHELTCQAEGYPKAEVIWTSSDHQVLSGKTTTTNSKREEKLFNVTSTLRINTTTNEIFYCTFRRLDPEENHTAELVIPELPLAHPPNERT
T1 sequence (Q9NZQ7 19-238 limits assumed): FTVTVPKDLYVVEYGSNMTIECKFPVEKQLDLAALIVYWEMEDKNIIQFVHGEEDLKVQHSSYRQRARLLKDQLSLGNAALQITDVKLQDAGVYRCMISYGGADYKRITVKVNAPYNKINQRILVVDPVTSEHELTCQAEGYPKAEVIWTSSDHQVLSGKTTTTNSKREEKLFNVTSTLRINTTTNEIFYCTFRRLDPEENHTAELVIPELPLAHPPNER
T4 sequence (Q9NZQ7 19-290 limits assumed): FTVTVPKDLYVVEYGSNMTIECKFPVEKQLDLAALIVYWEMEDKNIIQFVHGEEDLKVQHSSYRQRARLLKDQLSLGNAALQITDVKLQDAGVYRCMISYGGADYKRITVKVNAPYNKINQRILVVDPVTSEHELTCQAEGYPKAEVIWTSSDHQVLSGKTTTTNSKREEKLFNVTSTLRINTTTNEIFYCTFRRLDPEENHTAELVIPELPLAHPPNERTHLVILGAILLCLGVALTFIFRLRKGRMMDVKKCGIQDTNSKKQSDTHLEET

B1: LY3300054 (antibody, human IgG1, lambda, V domains shown)
VH: QVQLVQSGAEVKKPGSSVKVSCKASGGTFSSYAISWVRQAPGQGLEWMGGIIPIFGTANYAQKFQGRVTITADKSTSTAYMELSSLRSEDTAVYYCARSPDYSPYYYYGMDVWGQGTTVTVSS
VL: QSVLTQPPSASGTPGQRVTISCSGSSSNIGSNTVNWYQQLPGTAPKLLIYGNSNRPSGVPDRFSGSKSGTSASLAISGLQSEDEADYYCQSYDSSLSGSVFGGGIKLTVLG
notes: Biotinylated antibody was used in the flow cytometry assay; also called anti-PD-L1 antibody
IC50 [1]: 0.95 nM | IC50 [2]: 2.4 nM | EC50 [3]: 0.11 nM | Kd [4]: 0.082 nM | koff [4]: 0.000114 s⁻¹ | kon [4]: 1.4e+06 M⁻¹ s⁻¹ | Kd [5]: 0.122 nM | koff [5]: 0.000184 s⁻¹ | kon [5]: 1.51e+06 M⁻¹ s⁻¹ | EC50 [6]: 0.14 nM
